Source: PMC10238420, “Altered Signaling and Desensitization Responses in PTH1R Mutants Associated with Eiken Syndrome” (Communications Biology, 2023)

Assays:
[1] = target: PTH1R-E35K (human PTH1R with an HA tag) (human) (UniProt Q03431); experiment: radioligand binding; total binding of ^125I-PTHrP(1-36) (20,000-30,000 cpm/well) to confluent monolayers of intact, transiently transfected Gs22a cells in 96-well plates; HB (Hanks balanced salt solution, 10 mM HEPES pH 7.4, 0.1% BSA); one hour at room temperature
[2] = target: PTH1R-Y134S (human PTH1R with an HA tag) (human) (UniProt Q03431); experiment: as above
[3] = target: PTH1R-R485X (human PTH1R with an HA tag, C-terminal tail truncated at R485) (human) (UniProt Q03431)
[4] = target: human PTH1R-WT with an HA tag (parathyroid hormone receptor type 1) (human) (UniProt Q03431)

β-arrestin2-renilla luciferase (rLucII), sequence (P32121 whole entry): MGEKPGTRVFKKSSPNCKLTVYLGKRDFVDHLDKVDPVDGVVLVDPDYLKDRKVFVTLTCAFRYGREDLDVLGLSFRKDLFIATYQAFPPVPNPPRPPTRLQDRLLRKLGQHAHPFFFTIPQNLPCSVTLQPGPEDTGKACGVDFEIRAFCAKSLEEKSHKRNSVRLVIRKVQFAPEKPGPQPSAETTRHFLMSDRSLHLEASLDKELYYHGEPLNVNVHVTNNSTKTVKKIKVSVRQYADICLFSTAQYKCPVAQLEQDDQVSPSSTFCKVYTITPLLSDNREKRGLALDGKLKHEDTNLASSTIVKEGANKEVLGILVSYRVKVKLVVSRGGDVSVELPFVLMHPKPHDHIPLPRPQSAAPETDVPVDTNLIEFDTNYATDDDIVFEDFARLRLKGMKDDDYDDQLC
^125I-PTHrP(1-36) (peptide), sequence (P12272 37-72): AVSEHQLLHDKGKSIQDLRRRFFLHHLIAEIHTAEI

Row | reduction of total binding relative to PTH1R-WT [1] | reduction of total binding relative to PTH1R-WT [2] | PTH(1-34)-induced recruitment of β-arrestin2^rLucII to endosomes (BRET with rGFP-FYVE), fold-BRET increase from baseline [3] | PTH(1-34)-induced recruitment of β-arrestin2^rLucII to the plasma membrane (BRET with rGFP-CAAX), fold-BRET increase from baseline [3] | PTH(1-34)-induced recruitment of β-arrestin2^rLucII to endosomes (BRET with rGFP-FYVE), fold-BRET increase from baseline [4] | PTH(1-34)-induced recruitment of β-arrestin2^rLucII to the plasma membrane (BRET with rGFP-CAAX), fold-BRET increase from baseline [4] | Substance
1 | 50% | 50% |  |  |  |  | ^125I-PTHrP(1-36) (peptide)
2 |  |  | 1.33 fold | 2.69 fold | 6.08 fold | 4.79 fold | β-arrestin2-renilla luciferase (rLucII) (from UniProt P32121 1-409) (natural protein)
